T1: cynomolgus tissue factor (cynomolgus TF, Sino Bio #90885-C08H) (cynomolgus monkey, UniProt P13726 33-251 (human entry))
T1 construct: bought recombinant antigen; also called cyno TF
T1 chain: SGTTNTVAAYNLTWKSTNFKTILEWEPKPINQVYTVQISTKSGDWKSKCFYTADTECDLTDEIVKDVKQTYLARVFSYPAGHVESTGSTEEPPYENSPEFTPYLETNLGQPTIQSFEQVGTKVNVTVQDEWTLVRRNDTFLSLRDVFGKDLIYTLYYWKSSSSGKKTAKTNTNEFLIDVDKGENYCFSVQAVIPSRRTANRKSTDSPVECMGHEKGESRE


Tests used:
[1] = target: T1, cynomolgus tissue factor (cynomolgus …); assay: Biacore SPR, single-point off-rate (100 nM antigen), antibody captured on anti-Fc
Method: (§1) Anti-Fc polyclonal antibodies were immobilized onto a CM4 chip (Cytiva #BR100534) using amine coupling chemistry (Human Antibody Capture Kit, Cytiva #BR100839). The immobilization steps were carried out at a flow rate of 25 μL/min in 1×HBS-EP+buffer (Cytiva #BR100669). The sensor surfaces were activated for 7 min with a mixture of N-hydroxysuccinimide (NHS, 0.05 M) and 1-ethyl-3-(3-dimethylaminopropyl)-carbodiimide (EDC, 0.2 M). The anti-Fc polyclonal antibodies were injected over all 4 flow cells at a concentration of 25 μg/mL in 10 mM sodium acetate, pH 4.5, for 7 min. Ethanolamine (1 M, pH 8.5) was injected for 7 min to block any remaining activated groups.
(§2) Off-rate and kinetic binding experiments were performed at 25° C. using 1×HBS-EP+buffer. Antibodies were injected over the anti-Fc surface at a concentration of 3 μg/mL for 12 seconds at a flow rate of 10 μL/min on flow cells 2, 3 and 4, followed by a buffer wash for 30 seconds at the same flow rate. Single point off-rate analysis was carried out using an antigen concentration of 100 nM. […] After capturing ligand (antibody) on the anti-Fc surface, the analyte (human TF, Lake Pharma; cynomolgus TF, Sino Bio #90885-C08H; mouse TF, R&D Systems #3178-PA) was bound for 180 seconds, followed by a 420 second dissociation phase at a flow rate of […]. Between each ligand capture and analyte binding cycle, regeneration was carried out using 2 injections of 10 mM glycine pH 2.0 for 30 seconds at 30 μL/min, followed by a 30 second buffer wash step.

[2] = target: T2, human tissue factor (human TF, Lake Pharma) (human, UniProt P13726 33-251, limits assumed); assay: as above
T2 construct: bought recombinant antigen; also called CD142
Method: as §1, §2

[3] = target: tissue factor reagent of the Tissue Factor Activity Assay Kit (Abcam #ab108906) (UniProt P13726 33-295, limits assumed); assay: cell-based or functional assay

| koff [1] | koff [2] | FX conversion (% inhibition), 1000 nM antibody [3] | Binder |
| --- | --- | --- | --- |
| 0.000761 s⁻¹ | 0.00116 s⁻¹ | 0.21% | SRP2900-A02 (antibody, IgG1, V domains shown) VH: MEVQLVESGGGLVQPGGSLRLSCAASGFTISGYIIHWVRQAPGKGLEWVGYIDPSNGYTYYADSVKGRFTISADTSKNTAYLQMNSLRAEDTAVYYCARDDQSLSSPFDYWGQGTLVTVSS VL: not shown |
| 0.00195 s⁻¹ | 0.000699 s⁻¹ | 20% | SRP2900-G03 (antibody, IgG1, V domains shown) VH: EVQLVESGGGLVQPGGSLRLSCAASGFTINNYIIHWVRQAPGKGLEWVGYIDPSNGYTYYADSVKGRFTISADTSKNTAYLQMNSLRAEDTAVYYCARDPQSLSSPFDYWGQGTLVTVSS VL: not shown |
| 0.000946 s⁻¹ | 0.0025 s⁻¹ | -3.63% | SRP2900-H11 (antibody, IgG1, V domains shown) VH: EVQLVESGGGLVQPGGSLRLSCAASGFTISSYIIHWVRQAPGKGPEWVGYIDPSNGYTYYADSVKGRFTISADTSKNTAYLQMNSLRAEDTAVYYCARDPQTLTSPFDYWGQGTLVTVSS VL: not shown |
| 0.00182 s⁻¹ | 0.000528 s⁻¹ | 17.7% | SRP2900-E02 (antibody, IgG1, V domains shown) VH: EVQLVESGGGLVQPGGSLRLSCAASGFTISDYVIHWVRQAPGKGLEWVGYIDPSNGYTYYADPVKGRFTISADTSKNTAYLQMNSLRAEDTAVYYCARDPQSFYIAFDYWGQGTLVTVSS VL: not shown |
| 0.00141 s⁻¹ | 0.00415 s⁻¹ | -0.11% | SRP2900-G02 (antibody, IgG1, V domains shown) VH: EVQLVESGGDLVRPGGSLRLSCAASGFTISYYIIHWVRQAPGKGLEWVGYIDPSNGYTYYADSVKGRFTISADTSKNTAYLQMNSLRAEDTAVYYCARDDQSVSSPFEYWGQGTLVTVSS VL: not shown |
| 0.000667 s⁻¹ | 0.00115 s⁻¹ | 12.1% | SRP2900-G05 (antibody, IgG1, V domains shown) VH: EVQLVESGGGLVQPGGLLRLSCAASGFTIAYYVIHWVRQAPGKGLEWVGYIDPSNGYTYYADSVKGRFTISADTSKNTAYLQMNSLRAEDTAVYYCARDDQSLSSPFDYWGQGTLVTVSS VL: not shown |
| 0.00215 s⁻¹ | 0.00139 s⁻¹ | 5.23% | SRP2900-F09 (antibody, IgG1, V domains shown) VH: EVQLVESGGGLVQPGGSLRLSCAASGFTIHDYVIHWVRQAPGKGLEWVGYIDPSNGYTYYADSVKGRFTISADTSKNTAYLQMNSLRAEDTAVYYCARDDQSISSPLDYWGQGTLVTVSS VL: not shown |
| 0.00115 s⁻¹ | 0.00204 s⁻¹ | 6.38% | SRP2900-F11 (antibody, IgG1, V domains shown) VH: EVQLVESGGGLVQPGGSLRLSCAASGFTISGYIIHWVRQAPGKGLEWVGYIDPSNGYTFYADSVKGRFTISADTSKNTAYLRMNSLRAEDTAVYYCARDDQSLSSPFDYWGQGTLVTVSS VL: not shown |
| 0.00257 s⁻¹ | 0.000842 s⁻¹ | 12.4% | SRP2900-C11 (antibody, IgG1, V domains shown) VH: EVQLVESGGGLVQPGGSLRLSCAASGFTISQYWIHWVRQAPGKGLEWVGYIDPYNGYTYYADSVKGRFTISADTSKNTAYLQMNSLRAEDTAVYYCARDYGSWRIRLDYWGQGTLVTVSS VL: not shown |
| 0.00584 s⁻¹ | 0.00169 s⁻¹ | 4.48% | SRP2900-H09 (antibody, IgG1, V domains shown) VH: EVQLVESGGGLVQPGGSLRLSCAASGFTISDYVIHWVRQAPGKGLEWVGYIDPSNGYTYYADSVKGRFTISADTSKNTAYLQMNSLRAEDTAVYYCARDDQSISSPLDYWGQGTLVTVSS VL: not shown |
| 0.00184 s⁻¹ | 0.00423 s⁻¹ | 1.72% | SRP2900-F06 (antibody, IgG1, V domains shown) VH: EVQLVESGGGLVQPGGSLRLSCAASGFTISIYTIHWVRQAPGKGLEWVGYIDPSNGYTYYADSVKGRLTISADTSKNTAYLQMNSLRAEDTAVYYCARDPQSISSPFDYWGQGTLVTVSS VL: not shown |
| 0.00113 s⁻¹ | 0.000511 s⁻¹ | 15.6% | SRP2900-E07 (antibody, IgG1, V domains shown) VH: EVQLVESGGGLVQPGGSLRLSCAASGFTISQYWIHWVRQAPGKGLEWVGYIDPYNGYTYYADSVKGRFTISADTSKNTAYLQMNSLRAEDTAVYYCARDYGSLRVSLDYWGQGTLVTVSS VL: not shown |
| 0.000665 s⁻¹ | 0.00131 s⁻¹ | 9.78% | SRP2900-F08 (antibody, IgG1, V domains shown) VH: EVQLVESGGGLVQPGGSLRLSCAASGFTIAYYIIHWVRQAPGKGLEWVGYIDPSNGYTYYADSVKGRFTISADTSKNTAYLQMNSLRAEDTAVYYCARDDQSLSSPFDYWGQGTLVTVSS VL: not shown |
| 0.0013 s⁻¹ | 0.00205 s⁻¹ | 13.5% | SRP2900-H07 (antibody, IgG1, V domains shown) VH: EVQLVESGGGLVQPGGSLRLSCAASGFNIAYYTIHWVRQAPGKGLEWVGYIDPSNGYTYYADSVKGRFTISADTSKNTAYLQMNSLRAEDTAVYYCARDPQSFSSPFDYWGQGTLVTVSS VL: not shown |
| 0.000696 s⁻¹ | 0.00274 s⁻¹ | 0.23% | SRP2900-F02 (antibody, IgG1, V domains shown) VH: EVQLVESGGGLVQPGGSLRLACAASGFTIGVYIIHWVRQAPGKGLEWVGYIDPSNGYTYYADSVKGRFTISADTSKNTAYLQMNSLRAEDTAVYYCARDDQSVSSPFDYWGQGTLVTVSS VL: not shown |
| 0.000689 s⁻¹ | 0.000978 s⁻¹ | 18.7% | SRP2900-E06 (antibody, IgG1, V domains shown) VH: EVQLVESGGGLVQPGGSLRLSCAASGFTISGYIIHWVRQAPGKGLEWVGYIDPSNGYTYHADSVKGRFTISADTSKNTAYLQMNSLRAEDTAVYYCARDDQSVSSPFDYWGQGTLVTVSS VL: not shown |
| 0.000648 s⁻¹ | 0.00347 s⁻¹ | 4.04% | SRP2900-H06 (antibody, IgG1, V domains shown) VH: EVQLVESGGGLVQPGGSLRLSCAASGFTIAAYIIHWVRQAPGKGLEWVGYIDPSNGYTYYADSVKGRFTISADTSKNTAYLQMNSLRAEDTAVYYCARDDQSFSSPFDYWGQGTLVTVSS VL: not shown |
